In the supplement of paper PMC11316812:
± gives the standard deviation of the averaged measurements.

Columns and labels:
[1] = system: MCF7; experiment: percentage of EdU-negative (G0-arrested) nuclei per well, 72 h; higher = more G0 arrest; settings: reference: sequence is the full UniProt precursor, the tested protein was the secreted form or ectodomain
[2] = system: hTERT-HMEC; experiment: as above; settings: reference: sequence is the full UniProt precursor, the tested protein was the secreted form or ectodomain
[3] = protein concentration 0.0257143 µM
[4] = protein concentration 0.257143 µM
[5] = protein concentration 0.01575 µM
[6] = protein concentration 0.1575 µM
[7] = protein concentration 0.02103 µM
[8] = protein concentration 0.2103 µM
[9] = protein concentration 0.0082175 µM
[10] = protein concentration 0.01138 µM
[11] = protein concentration 0.082175 µM
[12] = protein concentration 0.1138 µM
[13] = protein concentration 0.03125 µM
[14] = protein concentration 0.3125 µM
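Note: secreted proteins added to cultured cells, EdU pulse at the end, nuclei found by Hoechst imaging, EdU status from nuclear versus surrounding ring intensity ratio, PBS as neutral control.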

MRTQSLLLLGALLAVGSQLPAVFGRKKGEKSGGCPPDDGPCLLSVPDQCVEDSQCPLTRKCCYRACFRQCVPRVSVKLGSCPEDQLRCLSPMNHLCHKDSDCSGKKRCCHSACGRDCRDPARGTAPGCPGQANSDLGSVALHLSWGPTERVHDGRPGALPAGQHYLYQRWFQPSDNHWPADTSLQPIHPWFLLLGVKVHSLSSEEGLCITPVLCTTAIRASHPS [Q8TCV5]
percentage of EdU-negative [1, 3]: 23.5 ± 0.78%
percentage of EdU-negative [1, 4]: 28.7 ± 0.3%
percentage of EdU-negative [2, 3]: 5.766 ± 0.04%
percentage of EdU-negative [2, 4]: 5.25 ± 1.3%

MRTVVLTMKASVIEMFLVLLVTGVHSNKETAKKIKRPKFTVPQINCDVKAGKIIDPEFIVKCPAGCQDPKYHVYGTDVYASYSSVCGAAVHSGVLDNSGGKILVRKVAGQSGYKGSYSNGVQSLSLPRWRESFIVLESKPKKGVTYPSALTYSSSKSPAAQAGETTKAYQRPPIPGTTAQPVTLMQLLAVTVAVATPTTLPRPSPSAASTTSIPRPQSVGHRSQEMDLWSTATYTSSQNRPRADPGIQRQDPSGAAFQKPVGADVSLGLVPKEELSTQSLEPVSLGDPNCKIDLSFLIDGSTSIGKRRFRIQKQLLADVAQALDIGPAGPLMGVVQYGDNPATHFNLKTHTNSRDLKTAIEKITQRGGLSNVGRAISFVTKNFFSKANGNRSGAPNVVVVMVDGWPTDKVEEASRLARESGINIFFITIEGAAENEKQYVVEPNFANKAVCRTNGFYSLHVQSWFGLHKTLQPLVKRVCDTDRLACSKTCLNSADIGFVIDGSSSVGTGNFRTVLQFVTNLTKEFEISDTDTRIGAVQYTYEQRLEFGFDKYSSKPDILNAIKRVGYWSGGTSTGAAINFALEQLFKKSKPNKRKLMILITDGRSYDDVRIPAMAAHLKGVITYAIGVAWAAQEELEVIATHPARDHSFFVDEFDNLHQYVPRIIQNICTEFNSQPRN [Q6UXI7]
percentage of EdU-negative [1, 5]: 27 ± 0.45%
percentage of EdU-negative [1, 6]: 23.4 ± 0.87%
percentage of EdU-negative [2, 5]: 5.15 ± 0.69%
percentage of EdU-negative [2, 6]: 6.71 ± 1.1%

MRVAGAAKLVVAVAVFLLTFYVISQVFEIKMDASLGNLFARSALDTAARSTKPPRYKCGISKACPEKHFAFKMASGAANVVGPKICLEDNVLMSGVKNNVGRGINVALANGKTGEVLDTKYFDMWGGDVAPFIEFLKAIQDGTIVLMGTYDDGATKLNDEARRLIADLGSTSITNLGFRDNWVFCGGKGIKTKSPFEQHIKNNKDTNKYEGWPEVVEMEGCIPQKQD
percentage of EdU-negative [1, 7]: 25.3 ± 0.58%
percentage of EdU-negative [1, 8]: 24.9 ± 1.8%
percentage of EdU-negative [2, 7]: 4.78 ± 1.5%
percentage of EdU-negative [2, 8]: 5.17 ± 1.7%

MRVLGGRCGALLACLLLVLPVSEANFLSKQQASQVLVRKRRANSLLEETKQGNLERECIEELCNKEEAREVFENDPETDYFYPKYLVCLRSFQTGLFTAARQSTNAYPDLRSCVNAIPDQCSPLPCNEDGYMSCKDGKASFTCTCKPGWQGEKCEFDINECKDPSNINGGCSQICDNTPGSYHCSCKNGFVMLSNKKDCKDVDECSLKPSICGTAVCKNIPGDFECECPEGYRYNLKSKSCEDIDECSENMCAQLCVNYPGGYTCYCDGKKGFKLAQDQKSCEVVSVCLPLNLDTKYELLYLAEQFAGVVLYLKFRLPEISRFSAEFDFRTYDSEGVILYAESIDHSAWLLIALRGGKIEVQLKNEHTSKITTGGDVINNGLWNMVSVEELEHSISIKIAKEAVMDINKPGPLFKPENGLLETKVYFAGFPRKVESELIKPINPRLDGCIRSWNLMKQGASGIKEIIQEKQNKHCLVTVEKGSYYPGSGIAQFHIDYNNVSSAEGWHVNVTLNIRPSTGTGVMLALVSGNNTVPFAVSLVDSTSEKSQDILLSVENTVIYRIQALSLCSDQQSHLEFRVNRNNLELSTPLKIETISHEDLQRQLAVLDKAMKAKVATYLGGLPDVPFSATPVNAFYNGCMEVNINGVQLDLDEAISKHNDIRAHSCPSVWKKTKNS
percentage of EdU-negative [1, 9]: 25.6 ± 0.65%
percentage of EdU-negative [1, 10]: 28.4 ± 1.6%
percentage of EdU-negative [1, 11]: 27.3 ± 4.3%
percentage of EdU-negative [1, 12]: 28.2 ± 3.1%
percentage of EdU-negative [2, 9]: 4.46 ± 0.51%
percentage of EdU-negative [2, 10]: 4.81 ± 0.94%
percentage of EdU-negative [2, 11]: 7.16 ± 1.3%
percentage of EdU-negative [2, 12]: 5.79 ± 0.86%

MRVLLAALGLLFLGALRAFPQDRPFEDTCHGNPSHYYDKAVRRCCYRCPMGLFPTQQCPQRPTDCRKQCEPDYYLDEADRCTACVTCSRDDLVEKTPCAWNSSRVCECRPGMFCSTSAVNSCARCFFHSVCPAGMIVKFPGTAQKNTVCEPASPGVSPACASPENCKEPSSGTIPQAKPTPVSPATSSASTMPVRGGTRLAQEAASKLTRAPDSPSSVGRPSSDPGLSPTQPCPEGSGDCRKQCEPDYYLDEAGRCTACVSCSRDDLVEKTPCAWNSSRTCECRPGMICATSATNSCARCVPYPICAAETVTKPQDMAEKDTTFEAPPLGTQPDCNPTPENGEAPASTSPTQSLLVDSQASKTLPIPTSAPVALSSTGKPVLDAGPVLFWVILVLVVVVGSSAFLLCHRRACRKRIRQKLHLCYPVQTSQPKLELVDSRPRRSSTQLRSGASVTEPVAEERGLMSQPLMETCHSVGAAYLESLPLQDASPAGGPSSPRDLPEPRVSTEHTNNKIEKIYIMKADTVIVGTVKAELPEGRGLAGPAEPELEEELEADHTPHYPEQETEPPLGSCSDVMLSVEEEGKEDPLPTAASGK
percentage of EdU-negative [1, 13]: 24 ± 2.9%
percentage of EdU-negative [1, 14]: 24 ± 0.5%
percentage of EdU-negative [2, 13]: 5.63 ± 0.33%
percentage of EdU-negative [2, 14]: 5.66 ± 0.2%
